Where two headings read alike, the source gives them in different places.
Legend:
human VISTA protein = human VISTA protein (human, UniProt Q9H7M9 33-194, limits assumed); assay: ELISA on coated human VISTA protein
Protocol: (§1) 96-well plates (Nunc, Denmark) were coated with 1 μg/ml of human CD47 or VISTA protein in PBS, for 1 h at room temperature. Plates were blocked for 1 h at room temperature with 1% BSA in Tris buffer saline containing 0.05% Tween 20 (TBS-T). The test antigen-binding molecules were added at concentrations ranging from to 0.002 μg/ml to 200 μg/ml, and the plates were incubated at room temperature for 1 h. Plates were then washed three times with TBS-T, and were then incubated with a HRP-conjugated secondary antibody for 1 h at room temperature. After washing, plates were developed with colorimetric detection substrate 3,3′,5,5′-tetramethylbenzidine (Turbo-TMB; Pierce, USA). The reaction was stopped after 3.5 min with 2M […], and OD was measured at 450 nm.
In a separate ELISA, the antigen-binding molecules were evaluated for binding to human VISTA.

[1] = target: T1, human CD47 (recombinant protein, construct not stated) (human, UniProt Q08722 19-141); assay: ELISA on coated human CD47
T1 construct: also called hCD47; human CD47 protein
Protocol: as §1

[2] = target: T2, untagged human CD47 protein (Sinobiological Inc) (human, UniProt Q08722 19-141); assay: competition ELISA: inhibition of His-tagged SIRPα binding to coated human CD47
T2 construct: Bought

[3] = target: T1, human CD47 (recombinant protein, …); assay: BLI (BLItz), IgG1 captured on anti-human Fc tips, human CD47 as analyte, 1:1 global fit
Protocol: Bio-Layer Interferometry (BLI) experiments were performed using a single channel BLItz system (ForteBio, Menlo Park, Calif.) using Anti-human immunoglobulin G (IgG) Fc (AHC) coated biosensor tips (Pall ForteBio, Menlo Park, Calif.) for capturing human IgGs. Biosensors were first hydrated for at least 10 m in assay buffer (phosphate buffered saline) followed by buffer baseline for 30 s and loading of the human IgGs onto the biosensor tips at concentrations ranging from 25-50 nM for 120 s. The tips were then washed briefly for 30 s with the assay buffer to remove nonspecifically bound proteins or unbound IgGs for obtaining a second buffer baseline. […] All the BLITz runs were measured at room temperature at a stirring speed of 1000 rpm and AHC biosensors were regenerated using 10 mM of glycine (pH 2.7) after the assay. Binding affinity between the immobilized antibodies on the AHC sensors and human CD47 were determined by analyzing the binding kinetic curves using the software BLItz Pro. All the sensorgrams were reference subtracted and globally fitted into a 1:1 model which analysed the binding curves at different concentrations of antigens and generated kinetic constants (KD/Ka/Kd) for the globally fitted data. […]
(§2) The anti-CD47 antibody clones in IgG1 format were analyzed for binding affinity to human CD47.

his-tagged human CD47 [4] = target: T3, his-tagged human CD47 (human, UniProt Q08722 19-141); assay: BLI, his-tagged human CD47 on anti-Penta-HIS (HIS1K) sensors, antibody as analyte
T3 construct: not shown: his tag
Protocol: (§3) Buffer baseline was obtained for 30 s, and then sensors were loaded with his-tagged human CD47 (1.2 μM) for 120 s.

[5] = target: T1, human CD47 (recombinant protein, …); assay: BLI (BLItz), IgG1 captured on anti-human Fc tips, human CD47 as analyte, 1:1 global fit; remark: listed apart in the source
Protocol: Biosensors were first hydrated for at least 10 m in assay buffer (phosphate buffered saline) followed by buffer baseline for 60 s and loading of the human IgGs onto the biosensor tips at 25 nM for 120 s. The tips were then washed briefly for 60 s with the assay buffer to remove nonspecifically bound proteins or unbound IgGs for obtaining a second buffer baseline. The association phase of the IgGs with antigens (250 nM to 62.5 nM) was set up at 120 s which was followed by a dissociation phase (assay buffer alone) for 120 s. All the BLITz runs were measured at room temperature at a stirring speed of 1000 rpm and AHC biosensors were regenerated using 10 mM of glycine (pH 2.7) after the assay. Binding affinity between the immobilized antibodies on the AHC sensors and human CD47 were determined by analyzing the binding kinetic curves using the software BLItz Pro. All the sensorgrams were reference subtracted and globally fitted into a 1:1 model which analysed the binding curves at different concentrations of antigens and generated kinetic constants (KD/Ka/Kd) for the globally fitted data. All the binding curves were subjected to step correction which corrects the misalignment between association and dissociation steps and only the curves with R² values greater than 0.9 were used for analysis.

[6] = target: T1, human CD47 (recombinant protein, …); assay: BLI (BLItz), IgG captured on anti-human IgG Fc (AHC) tips, human CD47 as analyte, global 1:1 fit
Protocol: Bio-Layer Interferometry (BLI) experiments were performed using a single channel BLItz system (ForteBio, Menlo Park, Calif.) using Anti-human immunoglobulin G (IgG) Fc (AHC) coated biosensor tips (Pall ForteBio, Menlo Park, Calif.) for capturing human IgGs. Biosensors were first hydrated for at least 10 m in assay buffer (phosphate buffered saline) followed by buffer baseline for 30 s and loading of the human IgGs onto the biosensor tips at concentrations ranging from 25-50 nM for 120 s. The tips were then washed briefly for 30 s with the assay buffer to remove nonspecifically bound proteins or unbound IgGs for obtaining a second buffer baseline. The association phase of the IgGs with antigens (500 nM-0 nM) was set up at 120 s which was followed by a dissociation phase (assay buffer alone) for 120 s. All the BLITz runs were measured at room temperature at a stirring speed of 1000 rpm and AHC biosensors were regenerated using 10 mM of glycine (pH 2.7) after the assay. Binding affinity between the immobilized antibodies on the AHC sensors and human CD47 were determined by analyzing the binding kinetic curves using the software BLItz Pro. All the sensorgrams were reference subtracted and globally fitted into a 1:1 model which analysed the binding curves at different concentrations of antigens and generated kinetic constants (KD/Ka/Kd) for the globally fitted data. All the binding curves were subjected to step correction which corrects the misalignment between association and dissociation steps and only the curves with R² values greater than 0.9 were used for analysis.
as §2

his-tagged human CD47 [7] = target: T3, his-tagged human CD47; assay: BLI (Octet), his-tagged human CD47 loaded on anti-Penta-HIS (HIS1K) sensors, antibody as analyte
Protocol: as §3

B1: anti-CD47 clone 1-1-A1_BM IgG1 (antibody, V domains shown)
VH: QVQLQQSGPDLKKPGASVKVSCKVSGYTFTNYVIHWVRQKPGQGLEWMGYINPYNDGTKSNEKFKGKATLTSDKSSTSAYMELSSLTSEDTAVYYCASGGYYTMDYWGQGTSVTVSS
VL: DVVMTQTPLSLPVTLGDQASISCRSSQHLEYSNGYSYLHWYQQRPGQSPQLLIYKISNRFSGVPDRFSGSGSGTDFTLKISRVEAEDLGVYYCSQSTHVPYTFGGGTKLEIKR
B1 was tested, and the binding result (human VISTA protein) was “no binding (tested: 0.002 µg/ml to 200 µg/ml)”, the EC50 [1] was 0.0018 µg/mL and the “Fold increase in EC50 relative to 1-1-A1_BM” value [1] was 1 fold. For the same binder, the “Fold increase in IC50 relative to 1-1-A1_BM” value [2] was 1 fold, the IC50 [2] was 0.474 µg/mL and the Kd [3] was 16.1 nM. For the same binder, the Kd (his-tagged human CD47 [4]) was 10.4 nM, the Kd [5] was 9.31 nM and the koff [5] was 0.00121 s⁻¹. The kon [5] was 130000 M⁻¹ s⁻¹, the koff [6] was 0.00217 s⁻¹ and the kon [6] was 134000 M⁻¹ s⁻¹. It also gave a koff (his-tagged human CD47 [7]) of 0.000618 s⁻¹ and a kon (his-tagged human CD47 [7]) of 59400 M⁻¹ s⁻¹.

Reference: patent publication US20220298254A1 (HUMMINGBIRD BIOSCIENCE HOLDINGS PTE, published 2022)
